Changes are numbered by the printed parent chain. Blank lines part the entries; values can stand above or below the binder they belong to.
Tests used:
[1] = target: T1, C-terminal V5 tagged mouse HS6ST2 (mHS6ST2_ctV5), expressed in CHO DG44 cells (mouse, UniProt Q80UW0 148-612); test: flow cytometry, antibody diluted 5-fold from 10 µg/mL in 6 steps
T1 construct: also called mHS6ST2_ctV5_CHO; mouse HS6ST2 transcript variant 2
T1 sequence: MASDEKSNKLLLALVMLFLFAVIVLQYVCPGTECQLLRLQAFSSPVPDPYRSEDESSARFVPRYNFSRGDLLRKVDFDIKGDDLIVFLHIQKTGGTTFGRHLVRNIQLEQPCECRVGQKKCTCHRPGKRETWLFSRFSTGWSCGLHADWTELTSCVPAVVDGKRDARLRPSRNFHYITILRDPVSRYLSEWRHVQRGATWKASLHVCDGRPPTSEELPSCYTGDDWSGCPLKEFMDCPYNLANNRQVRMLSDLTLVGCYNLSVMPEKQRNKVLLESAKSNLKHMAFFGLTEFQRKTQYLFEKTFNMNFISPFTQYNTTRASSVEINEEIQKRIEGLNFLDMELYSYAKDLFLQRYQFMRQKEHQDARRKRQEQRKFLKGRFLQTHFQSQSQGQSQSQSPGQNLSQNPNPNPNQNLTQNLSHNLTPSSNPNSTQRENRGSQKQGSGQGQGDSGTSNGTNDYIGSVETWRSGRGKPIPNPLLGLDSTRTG
Method: (§1) Binding of the anti-HS6ST2 antibodies prepared in Example 2 to mHS6ST2 was evaluated by flow cytometry. The cells used were mHS6ST2_ctV5_CHO, HS6ST2_N-short_ctV5_CHO as a positive control, and the CHO DG44 cell line as a negative control.
[…] After reaction on ice for 1 hour, the cells were washed with FACS buffer. Then, an FITC-labeled anti-mouse antibody (Goat F(ab′)₂ Fragment Anti-mouse IgG (H+L)-FITC, Beckman Coulter) was added as a secondary antibody, and the mixture was reacted on ice for 1 hour. The cells were washed with FACS buffer, and then suspended in FACS buffer containing 10 μg/mL propidium iodide (PI) (Sigma) and assayed by a flow cytometer (FACS Calibur, Becton Dickinson). The assay data were analyzed by CELLQuest software (Becton Dickinson), and the geo-mean of FITC fluorescent intensity was calculated for the PI-negative population of viable cells.
It was also shown that A6 and C8 equally bind to HS6ST2 and mHS6ST2.

[2] = target: T2, C-terminal V5 tagged HS6ST2_N-long (HS6ST2_N-long_ctV5), expressed in CHO DG44 cells (human, UniProt Q96MM7 1-605); test: flow cytometry on HS6ST2_N-long_ctV5_CHO cells
T2 construct: On cells in flow cytometry; also called Q96MM7-1
T2 sequence: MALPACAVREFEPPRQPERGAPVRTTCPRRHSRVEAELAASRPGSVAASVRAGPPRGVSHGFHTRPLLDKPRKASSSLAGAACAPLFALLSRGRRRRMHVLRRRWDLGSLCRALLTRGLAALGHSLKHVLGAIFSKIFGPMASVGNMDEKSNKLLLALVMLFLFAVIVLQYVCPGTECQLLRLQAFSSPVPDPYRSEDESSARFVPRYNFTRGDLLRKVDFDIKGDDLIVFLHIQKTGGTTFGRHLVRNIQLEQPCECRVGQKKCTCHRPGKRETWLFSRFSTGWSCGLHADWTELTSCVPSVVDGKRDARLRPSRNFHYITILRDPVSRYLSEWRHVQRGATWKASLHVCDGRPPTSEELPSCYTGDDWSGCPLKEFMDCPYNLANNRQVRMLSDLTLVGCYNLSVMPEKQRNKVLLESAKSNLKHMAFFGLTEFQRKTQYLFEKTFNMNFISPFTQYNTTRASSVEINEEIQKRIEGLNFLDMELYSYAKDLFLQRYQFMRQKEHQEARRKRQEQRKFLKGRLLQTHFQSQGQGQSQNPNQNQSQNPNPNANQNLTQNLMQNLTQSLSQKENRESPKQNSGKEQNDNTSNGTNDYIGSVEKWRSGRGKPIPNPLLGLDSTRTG
Method: (§2) Each anti-HS6ST2 antibody or mouse IgG1 (mIgG1, BD Biosciences Pharmingen) as a negative control was added to a final concentration of 2 μg/mL into 96-well U-bottom plates (Becton Dickinson) containing 5×10⁴ cells suspended in PBS (FACS buffer) supplemented with 0.5% bovine serum albumin and 0.1% NaN₃. After reaction on ice for 1 hour, the cells were washed with FACS buffer. Then, an FITC-labeled anti-mouse antibody (Goat F(ab′)₂ Fragment Anti-mouse IgG (H+L)-FITC, Beckman Coulter) was added as a secondary antibody, and the mixture was reacted on ice for 1 hour. The cells were washed with FACS buffer, and then suspended in FACS buffer containing 10 μg/mL propidium iodide (PI) (Sigma) and assayed by a flow cytometer (FACS Calibur, Becton Dickinson). The assay data were analyzed by CELLQuest software (Becton Dickinson), and the geo-mean of FITC fluorescent intensity was calculated for the PI-negative population of viable cells.
Binding activity of the anti-HS6ST2 antibodies prepared in Example 2 to HS6ST2_N-long was evaluated by flow cytometry. The cells used were HS6ST2_N-long_ctV5_CHO cells and HS6ST2_N-short_{—} ctV5_CHO cells as a positive control, and evaluated in the same manner as in Example 3. The primary antibodies were used at a concentration of 10 μg/mL.

[3] = target: T3, C-terminal V5 tagged HS6ST2_N-short (HS6ST2_N-short_ctV5), expressed in CHO DG44 cells (human, UniProt Q96MM7 147-605); test: flow cytometry on HS6ST2_N-short_ctV5_CHO cells, antibody 2 µg/mL
T3 construct: also called Q96MM7-2
T3 sequence: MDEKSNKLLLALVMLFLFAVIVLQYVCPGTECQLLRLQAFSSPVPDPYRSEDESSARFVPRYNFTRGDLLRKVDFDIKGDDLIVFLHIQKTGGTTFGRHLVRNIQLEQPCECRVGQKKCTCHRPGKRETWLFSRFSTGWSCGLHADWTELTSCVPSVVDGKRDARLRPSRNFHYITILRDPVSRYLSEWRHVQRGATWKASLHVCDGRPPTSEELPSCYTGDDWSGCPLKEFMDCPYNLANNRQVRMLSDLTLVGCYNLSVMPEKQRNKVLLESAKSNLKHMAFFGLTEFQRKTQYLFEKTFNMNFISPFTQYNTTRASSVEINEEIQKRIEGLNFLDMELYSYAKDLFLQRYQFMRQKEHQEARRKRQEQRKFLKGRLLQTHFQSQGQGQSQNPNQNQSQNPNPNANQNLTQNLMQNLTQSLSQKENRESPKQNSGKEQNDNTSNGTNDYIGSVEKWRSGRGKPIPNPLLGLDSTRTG
Method: as §1, §2

- binding result [1]: binds
- binding result [2]: binds
- binding result [3]: binds
B1: anti-HS6ST2 antibody A6 (antibody, mouse IgG1, V domains shown)
VH: EVQLQQSGAELVRSGASVKLSCTASGFNIKDYYMHWVKQRPEQGLEWIGWIDPENDDTEYAPKFQGRATMTADTSSNTAYLQLSSLTSEDTAVYYCNAGYYGSGFAYWGQGTLVTVSA
VL: DIVMTQSPSSLTVTAGEKVTMRCKSSQSLLNSGNQKNYLTWYQQKPGQPPRLLIYWASIRESGVPDRFTGSGSGTDFTLTISSVQAEDLAVYYCQNDYSYPLTFGTGTKLELK
notes: also called clone A6

- binding result [1]: binds
- binding result [2]: binds
- binding result [3]: binds
B2: anti-HS6ST2 antibody C8 (antibody, mouse IgG1, V domains shown)
VH: B1 VH with E54D, R67K, Y100N, Y101G, G102N, S103Y, G104W
VL: DVVMTQTPLSLPVSLGDQASISCRSSQSLVHSNGNTYLHWNLQKPGQSPKLLIYKVSNRFSGVPDRFSGSGSGTDFTLKISRVEAEDLGVYFCSQTTLVPYTFGGGTKLEIK
notes: also called clone C8; C8-biotin

— patent publication US20110262929A1 (FORERUNNER PHARMA RESEARCH, published 2011)
